T1: MutS (Pseudomonas aeruginosa, UniProt Q9HY08 1-855)
T1 sequence: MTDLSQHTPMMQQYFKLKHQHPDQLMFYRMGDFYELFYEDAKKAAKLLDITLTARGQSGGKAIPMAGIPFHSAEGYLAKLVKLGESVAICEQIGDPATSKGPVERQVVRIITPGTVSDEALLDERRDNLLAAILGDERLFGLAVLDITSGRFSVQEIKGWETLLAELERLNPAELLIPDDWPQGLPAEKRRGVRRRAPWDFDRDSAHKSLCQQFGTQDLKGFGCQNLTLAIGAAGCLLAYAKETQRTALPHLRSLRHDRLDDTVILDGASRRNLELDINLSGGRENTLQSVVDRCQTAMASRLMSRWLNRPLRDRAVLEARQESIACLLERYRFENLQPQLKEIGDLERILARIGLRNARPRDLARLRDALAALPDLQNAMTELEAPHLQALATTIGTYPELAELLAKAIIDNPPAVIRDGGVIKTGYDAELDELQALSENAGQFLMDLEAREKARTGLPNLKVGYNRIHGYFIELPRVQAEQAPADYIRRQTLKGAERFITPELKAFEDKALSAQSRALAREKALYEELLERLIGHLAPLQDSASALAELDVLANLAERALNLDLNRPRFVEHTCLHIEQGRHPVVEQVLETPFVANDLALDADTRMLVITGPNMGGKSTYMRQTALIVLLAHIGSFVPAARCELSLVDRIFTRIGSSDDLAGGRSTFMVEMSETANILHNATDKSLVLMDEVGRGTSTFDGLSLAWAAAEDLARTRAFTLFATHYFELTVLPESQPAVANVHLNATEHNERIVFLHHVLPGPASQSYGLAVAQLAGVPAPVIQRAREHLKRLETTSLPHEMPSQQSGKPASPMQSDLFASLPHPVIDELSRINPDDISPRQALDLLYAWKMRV

T2: MutS R842E (Pseudomonas aeruginosa, UniProt Q9HY08 1-855, R842E)
T2 sequence: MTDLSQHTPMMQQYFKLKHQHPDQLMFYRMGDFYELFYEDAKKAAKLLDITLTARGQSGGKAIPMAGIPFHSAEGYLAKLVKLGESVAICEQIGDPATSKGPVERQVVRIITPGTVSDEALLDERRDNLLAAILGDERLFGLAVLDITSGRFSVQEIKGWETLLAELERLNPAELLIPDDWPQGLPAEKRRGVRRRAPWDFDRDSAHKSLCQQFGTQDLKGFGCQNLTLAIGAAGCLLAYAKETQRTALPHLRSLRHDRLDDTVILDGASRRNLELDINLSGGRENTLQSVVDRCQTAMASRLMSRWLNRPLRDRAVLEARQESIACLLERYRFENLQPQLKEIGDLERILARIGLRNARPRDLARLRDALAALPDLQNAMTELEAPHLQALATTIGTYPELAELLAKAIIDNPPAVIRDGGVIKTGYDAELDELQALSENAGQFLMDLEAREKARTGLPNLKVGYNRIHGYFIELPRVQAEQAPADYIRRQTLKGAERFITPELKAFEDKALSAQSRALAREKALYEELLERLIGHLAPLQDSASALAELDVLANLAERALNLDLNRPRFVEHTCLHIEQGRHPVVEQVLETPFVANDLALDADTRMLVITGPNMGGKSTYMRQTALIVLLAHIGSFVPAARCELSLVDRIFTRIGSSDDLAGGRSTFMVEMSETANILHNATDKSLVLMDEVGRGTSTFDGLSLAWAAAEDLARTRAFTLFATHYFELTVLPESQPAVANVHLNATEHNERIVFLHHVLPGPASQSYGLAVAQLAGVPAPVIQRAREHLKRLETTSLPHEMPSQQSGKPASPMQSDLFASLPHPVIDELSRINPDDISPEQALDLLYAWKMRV

T3: MutS E. coli (Escherichia coli, UniProt P23909 1-853)
T3 sequence: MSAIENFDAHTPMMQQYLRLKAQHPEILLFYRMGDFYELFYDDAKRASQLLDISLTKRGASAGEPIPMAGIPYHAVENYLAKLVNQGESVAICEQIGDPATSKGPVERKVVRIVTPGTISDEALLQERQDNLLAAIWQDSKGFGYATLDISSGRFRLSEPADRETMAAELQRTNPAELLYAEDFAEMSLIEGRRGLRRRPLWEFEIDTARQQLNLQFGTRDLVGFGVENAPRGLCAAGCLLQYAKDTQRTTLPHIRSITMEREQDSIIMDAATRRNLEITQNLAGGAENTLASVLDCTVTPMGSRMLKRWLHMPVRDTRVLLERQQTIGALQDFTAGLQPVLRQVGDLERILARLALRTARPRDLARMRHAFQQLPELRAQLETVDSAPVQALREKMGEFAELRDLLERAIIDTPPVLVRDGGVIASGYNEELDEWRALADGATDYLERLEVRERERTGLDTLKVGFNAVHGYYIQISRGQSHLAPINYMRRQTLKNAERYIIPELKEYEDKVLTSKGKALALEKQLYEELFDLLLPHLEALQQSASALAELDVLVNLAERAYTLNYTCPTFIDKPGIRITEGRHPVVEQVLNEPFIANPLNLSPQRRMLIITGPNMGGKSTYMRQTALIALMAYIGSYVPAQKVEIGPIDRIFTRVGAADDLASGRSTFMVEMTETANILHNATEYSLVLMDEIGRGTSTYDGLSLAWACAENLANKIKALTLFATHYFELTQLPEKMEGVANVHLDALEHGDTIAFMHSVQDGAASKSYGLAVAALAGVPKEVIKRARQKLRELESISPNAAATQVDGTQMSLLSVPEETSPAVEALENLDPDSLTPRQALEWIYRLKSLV

B1: GT-pDNA (GT 8 nt from 3'-OH) (dsDNA)
DNA 1: ATGTGAATCAGTATGGTTGCTATCTGC
DNA 2: ATTTCCTTCAGCAGATAGTAACCATACTGATTCACAT
B2: dsDNA (dsDNA)
DNA 1: ATGTGAATCAGTATGGTTACTATCTGCTGAAGGAAAT
DNA 2: ATTTCCTTCAGCAGATAGTAACCATACTGATTCACAT
B3: pDNA (AT) (dsDNA)
DNA 1: ATGTGAATCAGTATGGTTACTATCTGC
DNA 2: ATTTCCTTCAGCAGATAGTAACCATACTGATTCACAT
B4: GT-dsDNA (GT 18 nt from 3' end) (dsDNA)
DNA 1: ATGTGAATCAGTATGGTTGCTATCTGCTGAAGGAAAT
DNA 2: ATTTCCTTCAGCAGATAGTAACCATACTGATTCACAT

Key:
MutS = molecular target: T1, MutS; experiment: SPR
MutS R842E = molecular target: T2, MutS R842E; experiment: native PAGE shift
MutS E. coli = molecular target: T3, MutS E. coli; experiment: native PAGE shift

Row | Binder | Kd (MutS) | binding result (MutS R842E) | binding result (MutS E. coli)
1 | B1 | 53.3 ± 3.7 nM |  | 
2 | B2 |  | binds | 
3 | B3 |  | binds | 
4 | B4 |  | binds | binds

Reference: doi:10.1101/2020.05.01.070730 (bioRxiv, 2020)
